Biological target: full-length human RBBP4 (residues 1–425), recombinant (human, UniProt Q09028 1-425)
Assay: ITC

full-length human RBBP4 (residues 1–425), recombinant, sequence (Q09028 whole entry, the tested form may be a part): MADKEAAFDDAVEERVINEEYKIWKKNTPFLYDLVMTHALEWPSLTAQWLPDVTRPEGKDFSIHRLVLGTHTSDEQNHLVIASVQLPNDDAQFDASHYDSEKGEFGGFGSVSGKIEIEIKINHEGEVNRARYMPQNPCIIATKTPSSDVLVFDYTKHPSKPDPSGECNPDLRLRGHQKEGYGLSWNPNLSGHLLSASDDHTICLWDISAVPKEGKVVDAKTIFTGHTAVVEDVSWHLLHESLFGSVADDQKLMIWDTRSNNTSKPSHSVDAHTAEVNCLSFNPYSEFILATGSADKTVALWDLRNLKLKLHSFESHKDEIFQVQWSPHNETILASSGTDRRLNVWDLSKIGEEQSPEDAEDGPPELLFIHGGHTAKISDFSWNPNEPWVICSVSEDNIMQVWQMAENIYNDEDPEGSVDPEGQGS

Binder	Kd	stoichiometry N
MRSKGRARKLAT [human PRDM3 peptide (residues 1–12)]	2.96 µM	1
MRSKARARKLAK [human PRDM16 peptide (residues 1–12)]	3.15 µM	1

— PMC6379669 (Nucleic Acids Research, 2018)
